Like-named read-outs stand apart in the source and are kept apart here. *1 amine or outer side, *2 acyl side, *3 side chain or, on linkers, in order; H or OH if unused. Where no end group is shown, it is not given here. Side-chain parts run from the residue outwards. The star is where a group is joined. C18 diacid = O=C(O)CCCCCCCCCCCCCCCCC(=O)*; C16 diacid = O=C(O)CCCCCCCCCCCCCCC(=O)*; γGlu = O=C(O)[C@H](CCC(=O)[*:2])N[*:1]; AEEA = NCCOCCOCC(=O)O
T1: human GIP receptor (human, UniProt P48546 22-466)
T1 sequence (looked up): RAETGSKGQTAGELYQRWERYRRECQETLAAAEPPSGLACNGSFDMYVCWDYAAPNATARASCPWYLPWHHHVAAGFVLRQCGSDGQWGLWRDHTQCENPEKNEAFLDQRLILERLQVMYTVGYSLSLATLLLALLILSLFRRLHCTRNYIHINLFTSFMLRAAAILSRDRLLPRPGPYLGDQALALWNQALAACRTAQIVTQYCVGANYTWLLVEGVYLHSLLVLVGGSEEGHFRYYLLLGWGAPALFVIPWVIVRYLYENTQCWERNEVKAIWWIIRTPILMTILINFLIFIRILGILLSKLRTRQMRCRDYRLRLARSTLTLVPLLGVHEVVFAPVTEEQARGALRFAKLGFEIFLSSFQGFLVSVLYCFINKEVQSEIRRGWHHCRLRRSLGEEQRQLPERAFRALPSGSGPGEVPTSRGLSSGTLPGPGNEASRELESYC

B1: AT469 (peptide)
peptide: EGTFISDYSIAMDKIK(C16 diacid)QQDFVNWLLAQKGPSSGAP-OH
modifications: N-terminus assumed
SMILES: CC[C@H](C)[C@H](NC(=O)[C@H](CO)NC(=O)[C@H](Cc1ccc(O)cc1)NC(=O)[C@H](CC(=O)O)NC(=O)[C@H](CO)NC(=O)[C@@H](NC(=O)[C@H](Cc1ccccc1)NC(=O)[C@@H](NC(=O)CNC(=O)[C@@H](N)CCC(=O)O)[C@@H](C)O)[C@@H](C)CC)C(=O)N[C@@H](C)C(=O)N[C@@H](CCSC)C(=O)N[C@@H](CC(=O)O)C(=O)N[C@@H](CCCCN)C(=O)N[C@H](C(=O)N[C@@H](CCCCNC(=O)CCCCCCCCCCCCCCC(=O)O)C(=O)N[C@@H](CCC(N)=O)C(=O)N[C@@H](CCC(N)=O)C(=O)N[C@@H](CC(=O)O)C(=O)N[C@@H](Cc1ccccc1)C(=O)N[C@H](C(=O)N[C@@H](CC(N)=O)C(=O)N[C@@H](Cc1c[nH]c2ccccc12)C(=O)N[C@@H](CC(C)C)C(=O)N[C@@H](CC(C)C)C(=O)N[C@@H](C)C(=O)N[C@@H](CCC(N)=O)C(=O)N[C@@H](CCCCN)C(=O)NCC(=O)N1CCC[C@H]1C(=O)N[C@@H](CO)C(=O)N[C@@H](CO)C(=O)NCC(=O)N[C@@H](C)C(=O)N1CCC[C@H]1C(=O)O)C(C)C)[C@@H](C)CC
B2: AT470 (peptide)
peptide: EGTFISDYSIAMDKIK(C16 diacid)QQDFVNWLLAQKGPSSGA-OH
modifications: N-terminus assumed
SMILES: CC[C@H](C)[C@H](NC(=O)[C@H](CO)NC(=O)[C@H](Cc1ccc(O)cc1)NC(=O)[C@H](CC(=O)O)NC(=O)[C@H](CO)NC(=O)[C@@H](NC(=O)[C@H](Cc1ccccc1)NC(=O)[C@@H](NC(=O)CNC(=O)[C@@H](N)CCC(=O)O)[C@@H](C)O)[C@@H](C)CC)C(=O)N[C@@H](C)C(=O)N[C@@H](CCSC)C(=O)N[C@@H](CC(=O)O)C(=O)N[C@@H](CCCCN)C(=O)N[C@H](C(=O)N[C@@H](CCCCNC(=O)CCCCCCCCCCCCCCC(=O)O)C(=O)N[C@@H](CCC(N)=O)C(=O)N[C@@H](CCC(N)=O)C(=O)N[C@@H](CC(=O)O)C(=O)N[C@@H](Cc1ccccc1)C(=O)N[C@H](C(=O)N[C@@H](CC(N)=O)C(=O)N[C@@H](Cc1c[nH]c2ccccc12)C(=O)N[C@@H](CC(C)C)C(=O)N[C@@H](CC(C)C)C(=O)N[C@@H](C)C(=O)N[C@@H](CCC(N)=O)C(=O)N[C@@H](CCCCN)C(=O)NCC(=O)N1CCC[C@H]1C(=O)N[C@@H](CO)C(=O)N[C@@H](CO)C(=O)NCC(=O)N[C@@H](C)C(=O)O)C(C)C)[C@@H](C)CC
B3: AT441 (peptide)
peptide: SGTFISDYSIAMDRIK([AEEA-AEEA-γGlu-C18 diacid])QQDFVNWLLAQRGPSSGAPPPS-OH
modifications: N-terminus assumed
SMILES: CC[C@H](C)[C@H](NC(=O)[C@H](CO)NC(=O)[C@H](Cc1ccc(O)cc1)NC(=O)[C@H](CC(=O)O)NC(=O)[C@H](CO)NC(=O)[C@@H](NC(=O)[C@H](Cc1ccccc1)NC(=O)[C@@H](NC(=O)CNC(=O)[C@@H](N)CO)[C@@H](C)O)[C@@H](C)CC)C(=O)N[C@@H](C)C(=O)N[C@@H](CCSC)C(=O)N[C@@H](CC(=O)O)C(=O)N[C@@H](CCCNC(=N)N)C(=O)N[C@H](C(=O)N[C@@H](CCCCNC(=O)COCCOCCNC(=O)COCCOCCNC(=O)CC[C@H](NC(=O)CCCCCCCCCCCCCCCCC(=O)O)C(=O)O)C(=O)N[C@@H](CCC(N)=O)C(=O)N[C@@H](CCC(N)=O)C(=O)N[C@@H](CC(=O)O)C(=O)N[C@@H](Cc1ccccc1)C(=O)N[C@H](C(=O)N[C@@H](CC(N)=O)C(=O)N[C@@H](Cc1c[nH]c2ccccc12)C(=O)N[C@@H](CC(C)C)C(=O)N[C@@H](CC(C)C)C(=O)N[C@@H](C)C(=O)N[C@@H](CCC(N)=O)C(=O)N[C@@H](CCCNC(=N)N)C(=O)NCC(=O)N1CCC[C@H]1C(=O)N[C@@H](CO)C(=O)N[C@@H](CO)C(=O)NCC(=O)N[C@@H](C)C(=O)N1CCC[C@H]1C(=O)N1CCC[C@H]1C(=O)N1CCC[C@H]1C(=O)N[C@@H](CO)C(=O)O)C(C)C)[C@@H](C)CC
B4: AT468 (peptide)
peptide: EGTFISDYSIAMDKIK(C16 diacid)QQDFVNWLLAQKGPSSGAPP-OH
modifications: N-terminus assumed
SMILES: CC[C@H](C)[C@H](NC(=O)[C@H](CO)NC(=O)[C@H](Cc1ccc(O)cc1)NC(=O)[C@H](CC(=O)O)NC(=O)[C@H](CO)NC(=O)[C@@H](NC(=O)[C@H](Cc1ccccc1)NC(=O)[C@@H](NC(=O)CNC(=O)[C@@H](N)CCC(=O)O)[C@@H](C)O)[C@@H](C)CC)C(=O)N[C@@H](C)C(=O)N[C@@H](CCSC)C(=O)N[C@@H](CC(=O)O)C(=O)N[C@@H](CCCCN)C(=O)N[C@H](C(=O)N[C@@H](CCCCNC(=O)CCCCCCCCCCCCCCC(=O)O)C(=O)N[C@@H](CCC(N)=O)C(=O)N[C@@H](CCC(N)=O)C(=O)N[C@@H](CC(=O)O)C(=O)N[C@@H](Cc1ccccc1)C(=O)N[C@H](C(=O)N[C@@H](CC(N)=O)C(=O)N[C@@H](Cc1c[nH]c2ccccc12)C(=O)N[C@@H](CC(C)C)C(=O)N[C@@H](CC(C)C)C(=O)N[C@@H](C)C(=O)N[C@@H](CCC(N)=O)C(=O)N[C@@H](CCCCN)C(=O)NCC(=O)N1CCC[C@H]1C(=O)N[C@@H](CO)C(=O)N[C@@H](CO)C(=O)NCC(=O)N[C@@H](C)C(=O)N1CCC[C@H]1C(=O)N1CCC[C@H]1C(=O)O)C(C)C)[C@@H](C)CC
B5: AT467 (peptide)
peptide: EGTFISDYSIAMDKIK(C16 diacid)QQDFVNWLLAQKGPSSGAPPP-OH
modifications: N-terminus assumed
SMILES: CC[C@H](C)[C@H](NC(=O)[C@H](CO)NC(=O)[C@H](Cc1ccc(O)cc1)NC(=O)[C@H](CC(=O)O)NC(=O)[C@H](CO)NC(=O)[C@@H](NC(=O)[C@H](Cc1ccccc1)NC(=O)[C@@H](NC(=O)CNC(=O)[C@@H](N)CCC(=O)O)[C@@H](C)O)[C@@H](C)CC)C(=O)N[C@@H](C)C(=O)N[C@@H](CCSC)C(=O)N[C@@H](CC(=O)O)C(=O)N[C@@H](CCCCN)C(=O)N[C@H](C(=O)N[C@@H](CCCCNC(=O)CCCCCCCCCCCCCCC(=O)O)C(=O)N[C@@H](CCC(N)=O)C(=O)N[C@@H](CCC(N)=O)C(=O)N[C@@H](CC(=O)O)C(=O)N[C@@H](Cc1ccccc1)C(=O)N[C@H](C(=O)N[C@@H](CC(N)=O)C(=O)N[C@@H](Cc1c[nH]c2ccccc12)C(=O)N[C@@H](CC(C)C)C(=O)N[C@@H](CC(C)C)C(=O)N[C@@H](C)C(=O)N[C@@H](CCC(N)=O)C(=O)N[C@@H](CCCCN)C(=O)NCC(=O)N1CCC[C@H]1C(=O)N[C@@H](CO)C(=O)N[C@@H](CO)C(=O)NCC(=O)N[C@@H](C)C(=O)N1CCC[C@H]1C(=O)N1CCC[C@H]1C(=O)N1CCC[C@H]1C(=O)O)C(C)C)[C@@H](C)CC

Tests used:
human GIP receptor [1] = target: T1, human GIP receptor; assay: cell-based or functional assay
human GIP receptor [2] = target: T1, human GIP receptor; assay: cell-based or functional assay; remark: listed apart in the source

Row | Binder | cAMP antagonism (human GIP receptor [1]) | cAMP antagonism % inhib (human GIP receptor [1]) | cAMP antagonism log (human GIP receptor [1]) | cAMP agonism % Emax (human GIP receptor [2]) | cAMP antagonism (human GIP receptor [2]) | cAMP antagonism % inhib (human GIP receptor [2]) | cAMP antagonism pIC50 (human GIP receptor [2]) | cAMP agonism Emax (human GIP receptor [1])
1 | B1 | 3 nM | 90% | -8.5 log M | 0% | 3.8 nM | 93% | 8.4 | –
2 | B2 | 14 nM | 100% | -7.8 log M | 0% | 20 nM | 91% | 7.7 | –
3 | B3 | 25 nM | 55% | -7.6 log M | 0% | 21.5 nM | 89% | 7.7 | –
4 | B4 | 13 nM | 95% | -7.9 log M | 0% | 12.6 nM | 92% | 7.9 | 4.6
5 | B5 | 6 nM | 100% | -8.2 log M | 0% | 14.7 nM | 86% | 7.8 | –

From US20220298218A1 (ANTAG THERAPEUTICS, published 2022)
